Reference: IntAct's records for PubMed 18809921

B1: CCAAT/enhancer-binding protein beta (Homo sapiens), P17676 (parent)
chain: MQRLVAWDPACLPLPPPPPAFKSMEVANFYYEADCLAAAYGGKAAPAAPPAARPGPRPPAGELGSIGDHERAIDFSPYLEPLGAPQAPAPATATDTFEAAPPAPAPAPASSGQHHDFLSDLFSDDYGGKNCKKPAEYGYVSLGRLGAAKGALHPGCFAPLHPPPPPPPPPAELKAEPGFEPADCKRKEEAGAPGGGAGMAAGFPYALRAYLGYQAVPSGSSGSLSTSSSSSPPGTPSPADAKAPPTACYAGAAPAPSQVKSKAKKTVDKHSDEYKIRRERNNIAVRKSRDKAKMRNLETQHKVLELTAENERLQKKVEQLSRELSTLRNLFKQLPEPLLASSGHC

Variants of: B1
Settings: with abc3g_human APOBEC3G

**Q.** Which “effect of a mutation on the interaction” value does the source give for MQRLVAWDPACLPLPPPPPAFKSMEVANFYYEADCLAAAYGGKAAPAAPPAARPGPRPPAGELGSIGDHERAIDFSPYLEPLGAPQAPAPATATDTFEAAPPAPAPAPASSGQHHDFLSDLFSDDYGGKNCKKPAEYGYVSLGRLGAAKGALHPGCFAPLHPPPPPPPPPAELKAEPGFEPADCKRKEEAGAPGGGAGMAAGFPYALRAYLGYQAVPSGSSGSLSTSSSSSPPGTPSPADAKAPPTACYAGAAPAPSQVKSKAKKTVDKHSDEYKIRRERNNIAVRKARDKAKMRNLETQHKVLELTAENERLQKKVEQLSRELSTLRNLFKQLPEPLLASSGHC [S288A] here?
**A.** decreasing interaction
